Measured values as given in PMC5349851, “Combinatorial bZIP dimers display complex DNA-binding specificity landscapes”.

Assays:
BATF3;CEBPA = BATF3;CEBPA (human;human, UniProt Q9NR55;P49715 ;, |); test: EMSA-FRET; heterodimer; EMSA-FRET: 50 nM each labeled protein, 10 nM DNA, 50 mM potassium phosphate pH 7.4, 150 mM KCl, 0.1% BSA, 0.1% Tween-20, 5 ng/ul poly(dI-dC), 0.5 mM TCEP; 37 C; conditions: protein: recombinant;recombinant; fluorescein or TAMRA; chain copies: 2;2; label: 5' TYE 665; blunt
XBP1 [1] = biological target: T1, XBP1 (human, UniProt P17861); test: EMSA-FRET; homodimer; comparable to CRE; EMSA-FRET: 50 nM each labeled protein, 10 nM DNA, 50 mM potassium phosphate pH 7.4, 150 mM KCl, 0.1% BSA, 0.1% Tween-20, 5 ng/ul poly(dI-dC), 0.5 mM TCEP; 37 C; conditions: protein: recombinant; fluorescein or TAMRA; chain copies: 2; label: 5' TYE 665; blunt
T1 sequence: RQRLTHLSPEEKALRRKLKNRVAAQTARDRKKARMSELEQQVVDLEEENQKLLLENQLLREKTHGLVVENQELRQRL

JUN [2] = biological target: T2, JUN (human, UniProt P05412); test: EMSA-FRET; homodimer; no detectable affinity; EMSA-FRET: 50 nM each labeled protein, 10 nM DNA, 50 mM potassium phosphate pH 7.4, 150 mM KCl, 0.1% BSA, 0.1% Tween-20, 5 ng/ul poly(dI-dC), 0.5 mM TCEP; 37 C; conditions: protein: recombinant; fluorescein or TAMRA; chain copies: 2; label: 5' TYE 665; blunt
ATF2;BATF3 [3] = biological target: T3, ATF2;BATF3 (human;human, UniProt P15336;Q9NR55 ;, |); test: EMSA-FRET; heterodimer; comparable to CRE; EMSA-FRET: 50 nM each labeled protein, 10 nM DNA, 50 mM potassium phosphate pH 7.4, 150 mM KCl, 0.1% BSA, 0.1% Tween-20, 5 ng/ul poly(dI-dC), 0.5 mM TCEP; 37 C; conditions: protein: recombinant;recombinant; fluorescein or TAMRA; copies: 1;1; label: 5' TYE 665; blunt
T3 sequence 1: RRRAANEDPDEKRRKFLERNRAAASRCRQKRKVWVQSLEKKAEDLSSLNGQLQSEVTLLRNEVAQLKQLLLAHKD
T3 sequence 2: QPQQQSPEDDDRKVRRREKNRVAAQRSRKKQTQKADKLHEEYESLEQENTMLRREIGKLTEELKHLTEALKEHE

BATF3 = biological target: T4, BATF3 (human, UniProt Q9NR55); test: EMSA-FRET; homodimer; EMSA-FRET: 50 nM each labeled protein, 10 nM DNA, 50 mM potassium phosphate pH 7.4, 150 mM KCl, 0.1% BSA, 0.1% Tween-20, 5 ng/ul poly(dI-dC), 0.5 mM TCEP; 37 C; conditions: protein: recombinant; fluorescein or TAMRA; chain copies: 2; label: 5' TYE 665; blunt
T4 sequence: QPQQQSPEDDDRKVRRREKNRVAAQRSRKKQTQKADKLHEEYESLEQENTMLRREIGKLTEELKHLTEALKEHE

BATF3;JUN [4] = biological target: T5, BATF3;JUN (human;human, UniProt Q9NR55;P05412 ;, |); test: EMSA-FRET; heterodimer; EMSA-FRET: 50 nM each labeled protein, 10 nM DNA, 50 mM potassium phosphate pH 7.4, 150 mM KCl, 0.1% BSA, 0.1% Tween-20, 5 ng/ul poly(dI-dC), 0.5 mM TCEP; 37 C; conditions: protein: recombinant;recombinant; fluorescein or TAMRA; chain copies: 2;2; label: 5' TYE 665; blunt
XBP1 [5] = biological target: T1, XBP1; test: EMSA-FRET; homodimer; comparable to CRE-L; EMSA-FRET: 50 nM each labeled protein, 10 nM DNA, 50 mM potassium phosphate pH 7.4, 150 mM KCl, 0.1% BSA, 0.1% Tween-20, 5 ng/ul poly(dI-dC), 0.5 mM TCEP; 37 C; conditions: protein: recombinant; fluorescein or TAMRA; chain copies: 2; label: 5' TYE 665; blunt
ATF2;BATF3 [6] = biological target: T3, ATF2;BATF3; test: EMSA-FRET; heterodimer; comparable to CRE-L; EMSA-FRET: 50 nM each labeled protein, 10 nM DNA, 50 mM potassium phosphate pH 7.4, 150 mM KCl, 0.1% BSA, 0.1% Tween-20, 5 ng/ul poly(dI-dC), 0.5 mM TCEP; 37 C; conditions: protein: recombinant;recombinant; fluorescein or TAMRA; copies: 1;1; label: 5' TYE 665; blunt
BATF3;JUN [7] = biological target: T5, BATF3;JUN; test: as above; conditions: protein: recombinant;recombinant; fluorescein or TAMRA; chain copies: 2;2; label: 5' TYE 665; blunt
JUN [8] = biological target: T2, JUN; test: EMSA-FRET; homodimer; EMSA-FRET: 50 nM each labeled protein, 10 nM DNA, 50 mM potassium phosphate pH 7.4, 150 mM KCl, 0.1% BSA, 0.1% Tween-20, 5 ng/ul poly(dI-dC), 0.5 mM TCEP; 37 C; conditions: protein: recombinant; fluorescein or TAMRA; chain copies: 2; label: 5' TYE 665; blunt
ATF3 = biological target: T6, ATF3 (human, UniProt P18847); test: as above; conditions: protein: recombinant; fluorescein or TAMRA; chain copies: 2; label: 5' TYE 665; blunt
T6 sequence: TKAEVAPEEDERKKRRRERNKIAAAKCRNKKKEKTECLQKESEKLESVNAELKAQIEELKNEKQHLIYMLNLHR

ATF3;CEBPG = biological target: T7, ATF3;CEBPG (human;human, UniProt P18847;P53567 ;, |); test: EMSA-FRET; heterodimer; EMSA-FRET: 50 nM each labeled protein, 10 nM DNA, 50 mM potassium phosphate pH 7.4, 150 mM KCl, 0.1% BSA, 0.1% Tween-20, 5 ng/ul poly(dI-dC), 0.5 mM TCEP; 37 C; conditions: protein: recombinant;recombinant; fluorescein or TAMRA; chain copies: 2;2; label: 5' TYE 665; blunt
T7 sequence 1: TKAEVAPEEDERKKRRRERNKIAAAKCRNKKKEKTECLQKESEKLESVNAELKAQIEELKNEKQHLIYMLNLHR
T7 sequence 2: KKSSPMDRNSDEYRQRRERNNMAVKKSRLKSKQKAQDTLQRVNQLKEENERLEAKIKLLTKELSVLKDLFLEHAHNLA

ATF3;CEBPA = ATF3;CEBPA (human;human, UniProt P18847;P49715 ;, |); test: as above; conditions: protein: recombinant;recombinant; fluorescein or TAMRA; chain copies: 2;2; label: 5' TYE 665; blunt
CEBPG = biological target: T8, CEBPG (human, UniProt P53567); test: EMSA-FRET; homodimer; EMSA-FRET: 50 nM each labeled protein, 10 nM DNA, 50 mM potassium phosphate pH 7.4, 150 mM KCl, 0.1% BSA, 0.1% Tween-20, 5 ng/ul poly(dI-dC), 0.5 mM TCEP; 37 C; conditions: protein: recombinant; fluorescein or TAMRA; chain copies: 2; label: 5' TYE 665; blunt
T8 sequence: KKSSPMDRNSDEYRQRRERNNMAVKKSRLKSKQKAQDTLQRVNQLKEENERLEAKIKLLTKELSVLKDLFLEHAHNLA

T2 sequence (P05412 243-316): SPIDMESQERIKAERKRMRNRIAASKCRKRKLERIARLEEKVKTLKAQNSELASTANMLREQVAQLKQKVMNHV
T5 sequence (P05412 243-316, one chain of several): as the sequence (P05412 243-316) above
Sequence of BATF3;CEBPA (P49715 273-345, one chain of several): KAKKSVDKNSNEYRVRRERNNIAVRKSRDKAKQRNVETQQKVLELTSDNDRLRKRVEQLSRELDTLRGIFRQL
Sequence of ATF3;CEBPA (P49715 273-345, one chain of several): as above

B1: CREA/CAAT (CRE-L-CAAT) (dsDNA)
DNA 1: GAGTCCGCCACGCAATCCGTAG
DNA 2: CTACGGATTGCGTGGCGGACTC
binding result (BATF3;CEBPA): binds

B2: CRE-L (dsDNA)
DNA 1: GAGTCCATGACGTGGCCCGTAG
DNA 2: CTACGGGCCACGTCATGGACTC
binding result (XBP1 [1]): binds | binding result (JUN [2]): no binding | binding result (ATF2;BATF3 [3]): binds | binding result (BATF3): no binding | binding result (BATF3;JUN [4]): binds

B3: CRE (dsDNA)
DNA 1: GAGTCCATGACGTCATCCGTAG
DNA 2: CTACGGATGACGTCATGGACTC
binding result (XBP1 [5]): binds | binding result (ATF2;BATF3 [6]): binds | binding result (BATF3;JUN [7]): binds | binding result (BATF3): binds | binding result (JUN [8]): binds | binding result (ATF3): binds

B4: CRE/CAAT (dsDNA)
DNA 1: GAGTCCATGACGCAATCCGTAG
DNA 2: CTACGGATTGCGTCATGGACTC
binding result (ATF3;CEBPG): binds

B5: AP1/CAAT (TRE-CAAT) (dsDNA)
DNA 1: GAGTCCATGAGCAATCCGTAG
DNA 2: CTACGGATTGCTCATGGACTC
binding result (ATF3;CEBPA): binds

B6: CAAT (dsDNA)
DNA 1: GAGTCCATTGCGCAATCCGTAG
DNA 2: CTACGGATTGCGCAATGGACTC
binding result (CEBPG): binds
